Experimental findings from a protein production outcome set (Wang et al. 2014) are described below.

This data set is described as follows: label from the status in PepcDB records.

In the case of “MSAIRSRRSLLIPVLIVALLHVYIGVRLLPGLPVPMIVHSLAVLWLIASTLLMPAALMARRLSTPWADQLSWVGMMAMGFFSSLLVLTIARDLFLLVTLAIGWRPPGLTGYSALGAIALALAVTVIGFFQARGLAKVKEVDVPIANLPDALHGFTIAQISDIHVGPTIKRPYIDRIVDRVNSLAPDAIAITGDLVDGSVRELSAHTAPFARLSARHGAYVVTGNHEYYSGAEAWIVELRRLGLRVLMNEHVVVERGDASLVLGGVTDFTAGGFIESHRSDPVQALDGAPRDAAARVLLAHQPRTAPAAAAAGFDLQLSGHTHGGQFWPWNLFVPMQQPYVHGLNRHDNLWVYVSRGTGYWGPPKRFGAPSEITLVRLVRG”, the protein production entry is “failed”.

Consider “MSALDIPVTPENYTVWYEYFAQSNLDLNRAIDGFLANNVVFTKEVNTSLYKNFIQEKSPEVIENVQIETQILINSLISKITQLNQGTEAFSNTLADFGLQLQSSPDVNTLNQLVDGVIDEMQNLLVNNQTMEQSLNAMGQEVQNLKTEMENLSLAAMTDQLTSLHNRRAYEIAIQDHIHRAEEQHTRCSLLLIDIDRFKVFNDTYGHQVGDKVLAYVALALKQCVRGDDFVARYGGEEFVVLLPNTHFHDALQVAETLRGRISERRLAIGKDKKLSLGAITVSIGLASLQKGDDAETLFSRADKALYEAKSDGRNCVRG”, for which the protein production entry is reported as “failed”.

For the sequence “MSANDKQYISYNNVHQLCQVSAERIKNFKPDLIIAIGGGGFIPARILRTFLKEPGVPTIRIFAIILSLYEDLNSVGSEVEEVGVKVSRTQWIDYEQCKLDLVGKNVLIVDEVDDTRTTLHYALSELEKDAAEQAKAKGIDTEKSPEMKTNFGIFVLHDKQKPKKADLPAEMLNDKNRYFAAKTVPDKWYAYPWESTDIVFHTRMAIEQGNDIFIPEQEHKQ”, the protein production result is reported as “failed”.

For “MSAPTTFSVALHNETATAQLMADLALLVGPGDVITLTGDLGAGKTAAARAMIRYLADDEALEVPSPTFTLVQGYELPPFPVMHADLYRVEDESELEEIGLSPLPDATLVLIEWPERAPSALPEDRIDIALTHRPALGSNARAADITGYGKSAAQVARLKALREFLDASGYLDAMRRRMAGDASTRSYARLLRDDEIVILMNFPQRPDGAALYNGKSYSAAVHLAENVKPFVAIDEGLRAQGISAPAIHHADLDHGFLISEDFGSEGVIEGNPPRPIPERYEAATDVLAVLHGKTLPETLPLDGQSYAIPVFDTEAMLIEIGLMPEWYLPDRNAPLSEPKRAEFFAMWRELLKKPLAAPRTWIIRDYHSPNLIWLGMRTGIERVGVIDFQDTVLGPQSYDVVSLLQDARIDVPENLELTLLSRYIKARRAGDASFDPAGFAELYAIMSAQRNTRLLGTFARLNRRDGKPHYLRHQPRIWTYLQRSLAHPALSHLRDWYLANVPPPQRPSQEPAPEPPQGLEHHHHHH”, the protein production entry was “not failed”.

Turning to “MSARSLRQEALNLPNAITATRIALIPVFLWFTFYESRVDSFIAAVLYAVTGATDFLDGWVARRKNLVTVIGKFLDPLADKLIVMAALVMLVHLGRVAAWVCIVVLAREFIVTGLRTIAMSEGIVIAAGQEGKHKTAFQVAGITFLLLHYTYPIDAIFFSFDLDANRVGTWLVYISLFFSVWSAVSYFANFIRAVYRREGEAQAAEDVRPNRRTSRG”, the protein production result is on record as “failed”.

Take “MSASAPQAHGPAATGTVTTDVPARLDRLPWSRWHWMIVIGLGTVWILDGLEVTTVGNIAGRLSEDGSGLSITSAQVTGVAAALYVAGACAGALFFGWLTDRFGRKKLFMVTLVVYLSATALTALSFNSWWFFTFRFLTGFGIGGEYAAINSAIDELIPAKYRGRVDLIINGSYWLGAIGGALLSIVMLDTSIFPKDLGWRLTFALGVVLGLVILLVRRHVPESPRWQFIHGRGEDAEALVSSVEREIEQEKGEPLPRAESEITIEQRKSIGFGLIAKTVFGRYPKRAVLGLALFIGQAFLYNAITFGFGAILTTFYDVPTGGTGYYFAVIAAGNFIGPLLLGKLFDTVGRRIMIASTYLLSGLLLFGTAWLFDRGSLSAMTLTACWCAVLFFASAGASSAYLTVSEVFPMETRAMAIAFFYALGTAAGGISGPLVFADLTESGVVGDTVLAFQIGAGLMCAAGLVAAFLAVNAERRSLEDIAEPLSVAQTTAPAPASASGT”: the protein production result was “failed”.

With “MSASRRSGTTDELGPDGPDPERDGPDGADLLAALLDGMDAALCAFDADGVVTHWNREAERILGWTAAEAVGRRGFAGWAVRTADAEDVEARLMTAMQAPGRQVHEFALLTKDGGRVLVRTQSAAVHGPDGKPAGVYCAFSEVHTQIDLERSIALSEALFEDASWGVVLVDADLRPAVVNAHAARALGTGRTTVLGRPLGDLLSQGVEELESALTHVLAEGAPPAPAEMWVSVRTAEGEKRRCWRSGFLRLASPLAEEPVPLGVGWLFQDITEAKQTEQEAALLRFRTNQLHRAARAAAECEDPGEAATVHLDFSLAGFADHALIDRVAGGPVADGDRDGDGPPVRLVRAADTPSGAPGPSLLVGKAELPVWYAEGHPALQCVERAGSVRASAGVSDAERAREWAISRQWPGDAVHALCAVLRSRGRTLGVVTFLRGAGRSQFERADAVYAEDVAVRIAAALDLAGLAGLAGPAGER”, the protein production entry is reported as “failed”.

Take “MSATFSPTAVTDLKDIQDVERLMGRIKEARAAVGEVIFGQEAVVDEVLVTLLAGGHALLIGLPGLAKTKLVQTLGTVVGLRDKRVQFTPDLMPADILGSEVLEEDAAGQRGFRFLPGPVFCQLLMADEINRASPRTQSALLQAMQEHRVSVAGHYHDLPAPFHVLATQNPIEQEGTYPLPEAQLDRFLMQVDVGYPDEAAERRMLAATTGVHQPEARAVMTPAELQAAQALVRRVPVGDSVVDAILSLVRAGRPESSPLPEVRDWVAWGPGPRASQALTLAVRARALLDGRFAPSIEDVIALAHPILRHRMALSFGARADGVTLGRVVDRLIDKIALEHHHHHH”: the protein production result was “not failed”.

In the case of “MSATLQDHTVAFRDPALTDIARAIAHGDVARIKALAPTVDLAAHGDQNVTLLEWAIWNEQPRALAALLDAGADPSLPGMDQETVVHMAAMAQDPEYLQILLQHKAPIDVVSARAGWTPLFRAMQSKRDAQIDLLIKAGADVQRVDHTGNSLLHLAAQSGAASPAVLTLLNAGVDPAVRNAQQKTFQAYFFTTPDRLLNASGQQVRSEVRAWLNAHNIPVESSR”, the protein production result is “failed”.

As to “MSAVCGGAARMLRTPGRHGYAAEFSPYLPGRLACATAQHYGIAGCGTLLILDPDEAGLRLFRSFDWNDGLFDVTWSENNEHVLITCSGDGSLQLWDTAKAAGPLQVYKEHAQEVYSVDWSQTRGEQLVVSGSWDQTVKLWDPTVGKSLCTFRGHESIIYSTIWSPHIPGCFASASGDQTLRIWDVKAAGVRIVIPAHQAEILSCDWCKYNENLLVTGAVDCSLRGWDLRNVRQPVFELLGHTYAIRRVKMESCPVTQTRSQLTATSAFWVQAVLLPQPTE”, the protein production entry is “failed”.

In the case of “MSAVTESVLESIISPVTMSEFLEEYWPVKPLVARGEVERFTSIPGFEKVRTLENVLAIYNNPVMVVGDAVIEESEGITDRFLVSPAEALEWYEKGAALEFDFTDLFIPQVRRWIEKLKAELRLPAGTSSKAIVYAAKNGGGFKAHFDAYTNLIFQIQGEKTWKLAKNENVSNPMQHYDLSEAPYYPDDLQSYWKGDPPKEDLPDAEIVNLTPGTMLYLPRGLWHSTKSDQATLALNITFGQPAWLDLMLAALRKKLISDNRFRELAVNHQSLHESSKSELNGYLESLIQTLSENAETLTPEQIFQSQDSDFDPYQSTQLVFRQLLTSYKF”, the protein production result is given as “not failed”.

Consider “MSCFYLDLLKIKDPSFMKRLDIQELEALAADIRAFLITSTSKSGGHIGPNLGVVELTIALHYSFNSPKDKFIWDVGHQSYVHKILTGRANQFGTLREHGGLDGFPKRKESIHDVFETGHSSTSLSAAAGMVIARDIKKEDFYVIPIIGDGALTGGMALEALNHIGDMGKDMIVILNDNDMSIAPNVGAIHNILGKLRTSDTSKQTKTNVDGAFFEELGFMYLGPIDGHDIEEVITNLELAKRAKGPVLLHIVTKKGKGYQPAELDSRGTWHGTGPYKVETGSFIKPAKRAASWSSVISNELIRLAEMDERIVAITPAMPVGSKLEKFAKAFPERFFDVGIAEQHATTMAAGLATQGMKPFLAIYSTFLQRAYDQLVHDVCRQKLNVVIGIDRAGLVGADGETHQGIFDISFLNSIPNMTISMPKDEVEARQLMDTAFSYNDGPFAIRYPRGEAPGVQVVESNTLIPIGQWETIIQPLDAVILTFGPTIELALKAAEQLEIEGYRVGVINARYIKPLDEALLHKILKQKIPILTVEESLLKGGFGASVLEFIEANNYRDVIMHRIGLPDEFISHGSVSIILESFGISTTGLVLKIKEMLAQSGKLRAKRL”, for which the protein production entry was “failed”.

Consider “MSCHLSYLEGTMEFMISGRNLTVSDRFREYAGEKISKIESLGDKVQRVDAKVSKETNPRQTPGELTVEVTVLGRGPVIRAEATAADKFAAFDLAYNKLLERLRRAKDRKKVHHGRHTPKAVREATATLEPASASEPLYVEASNHQESAPPVDERSPYDIENDIPAGDSPVLIRRKVFPAASLTLDDAVDNMELVGHNFYLFLDKETNAPSVVYRRSGWTYGVITLDSTCEPGEEAVEEKIHAYRSDDQAATAK”, for which the protein production entry is “failed”.

Take “MSCVHYKFSSKLNYDTVTFDGLHISLCDLKKQIMGREKLKAADCDLQITNAQTKEEYTDDNALIPKNSSVIVRRIPIGGVKSTSKTYVISRTEPAMATTKAIDDSSASISLAQLTKTANLAEANASEEDKIKAMMSQSGHEYDPINYMKKPLGPPPPSYTCFRCGKPGHYIKNCPTNGDKNFESGPRIKKSTGIPRSFMMEVKDPNMKGAMLTNTGKYAIPTIDAGRLLFHKLGTMGHKQIDTYFWNRGDVYGATATQITHLREAYAIGKKEKPPFLPEEPSSSSEEDDPIPDELLCLICKDIMTDAVVIPCCGNSYCDECIRTALLESDEHTCPTCHQNDVSPDALIANKFLRQAVNNFKNETGYTKRLRKQLPPPPPPIPPPRPLIQRNLQPLMRSPISRQQDPLMIPVTSSSTHPAPSISSLTSNQSSLAPPVSGNPSSAPAPVPDITATVSISVHSEKSDGPFRDSDNKILPAAALASEHSKGTSSIAITALMEEKGYQVPVLGTPSLLGQSLLHGQLIPTTGPVRINTARPGGGRPGWEHSNKLGYLVSPPQQIRRGERSCYRSINRGRHHSERSQRTQGPSLPATPVFVPVPPPPLYPPPPHTLPLPPGVPPPQFSPQFPPGQPPPAGYSVPPPGFPPAPANLSTPWVSSGVQTAHSNTIPTTQAPPLSREEFYREQRRLKEEEKKKSKLDEFTNDFAKELMEYKKIQKERRRSFSRSKSPYSGSSYSRSSYTYSKSRSGSTRSRSYSRSFSRSHSRSYSRSPPYPRRGRGKSRNYRSRSRSHGYHRSRSRSPPYRRYHSRSRSPQAFRGQSPNKRNVPQGETEREYFNRYREVPPPYDMKAYYGRSVDFRDPFEKERYREWERKYREWYEKYYKGYAAGAQPRPSANRENFSPERFLPLNIRNSPFTRGRREDYVGGQSHRSRNIGSNYPEKLSARDGHNQKDNTKSKEKESENAPGDGKGNKHKKHRKRRKGEESEGFLNPELLETSRKSREPTGVEENKTDSLFVLPSRDDATPVRDEPMDAESITFKSVSEKDKRERDKPKAKGDKTKRKNDGSAVSKKENIVKPAKGPQEKVDGERERSPRSEPPIKKAKEETPKTDNTKSSSSSQKDEKITGTPRKAHSKSAKEHQETKPVKEEKVKKDYSKDVKSEKLTTKEEKAKKPNEKNKPLDNKGEKKKKK”: the protein production entry is “not failed”.

Turning to “MSCWKTINLVKDYGGMRIVLTAVSLMILFFIPEYLAMQLIHPQTVQRGDHALLFAGLLVAAIIAHKILHILPMISKKKLEKKIYWLKMRTWREIPKNMMLVSLLCPFLVITPVLFYAGAAMPSFAHYFCIISSIHFGYCLPDFLFAWKLIKAPKNCFVDQEADDFDILIQK”, the protein production entry is reported as “failed”.

Turning to “MSDAFTDVAKMKKIKEEIKAHEGQVVEMTLENGRKRQKNRLGKLIEVYPSLFIVEFGDVEGDKQVNVYVESFTYSDILTEKNLIHYLD”, the protein production entry was “not failed”.
